Measured values from PMC4715562.

Biological target: Gp7-MyH7-1526-1571 (bacteriophage φ29 | human)
Assay: crystal structure

stoichiometry N: 2
Substance: Gp7-MyH7-1526-1571 (domain or fragment)
